Laboratory results published in article doi:10.1101/219105.

Tests used:
[1] = target: Asp1, untagged, as co-expressed with Asp3 and tagged Asp2 (Streptococcus gordonii) (UniProt Q9AET8); assay: light scattering
[2] = target: Asp1/2/3 complex (without a tag) (Streptococcus gordonii) (UniProt Q9AET8); assay: light scattering

UniProt Q9AET8, sequence (Q9AET8 whole entry): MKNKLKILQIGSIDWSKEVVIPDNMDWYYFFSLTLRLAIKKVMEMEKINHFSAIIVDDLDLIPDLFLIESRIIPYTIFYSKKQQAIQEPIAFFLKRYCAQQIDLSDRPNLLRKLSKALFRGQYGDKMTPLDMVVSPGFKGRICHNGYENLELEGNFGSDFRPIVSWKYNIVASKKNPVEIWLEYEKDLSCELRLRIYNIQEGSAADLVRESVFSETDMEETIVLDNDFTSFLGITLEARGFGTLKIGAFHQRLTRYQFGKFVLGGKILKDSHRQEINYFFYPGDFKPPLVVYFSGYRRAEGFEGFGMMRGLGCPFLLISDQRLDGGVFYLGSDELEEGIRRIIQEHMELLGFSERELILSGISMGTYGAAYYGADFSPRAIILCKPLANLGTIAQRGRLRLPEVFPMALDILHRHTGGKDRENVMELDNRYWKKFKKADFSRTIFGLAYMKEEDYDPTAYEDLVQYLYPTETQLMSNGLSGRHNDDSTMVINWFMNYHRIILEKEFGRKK

For “Asp3 (accessory Sec protein 3) (natural protein)”, the stoichiometry N [1] was 1.

In the case of “Asp1/2/3 complex (without a tag) (from UniProt Q9AET8 1-510)”, the stoichiometry N [2] is reported as 2.
